# Laboratory results published in article PMC6158717.
# Legend:
# [1] = molecular target: TGIF1-HD R167A/R168A (Homo sapiens, UniProt Q15583 161-250, R167A;R168A); experiment: X-ray 3.25 A
# [2] = molecular target: TGIF1-HD (160-250) (Homo sapiens, UniProt Q15583 160-250); experiment: ITC
# [3] = molecular target: TGIF1-HD (171-250) (Homo sapiens, UniProt Q15583 171-250); experiment: ITC
# Chain of TGIF1-HD (171-250) (Q15583 171-250): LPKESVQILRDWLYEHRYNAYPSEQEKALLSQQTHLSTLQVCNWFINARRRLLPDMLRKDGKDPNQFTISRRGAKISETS
# Chain of TGIF1-HD R167A/R168A (Q15583 161-250 R167A/R168A): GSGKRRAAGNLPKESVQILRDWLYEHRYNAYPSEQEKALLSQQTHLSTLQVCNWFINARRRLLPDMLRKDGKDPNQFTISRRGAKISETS
# Chain of TGIF1-HD (160-250) (Q15583 160-250): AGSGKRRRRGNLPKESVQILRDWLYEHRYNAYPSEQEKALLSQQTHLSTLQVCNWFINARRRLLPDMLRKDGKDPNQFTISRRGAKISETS
binder,measurement,setting,value
canonical TGACA palindrome 16mer (dsDNA) DNA 1: ATTGACAGCTGTCAAT DNA 2: ATTGACAGCTGTCAAT,binding result,[1],binds
same,Kd,[2],170 ± 20 nM
same,Kd,[3],728.1 ± 3 nM
